The text below walks through data of patent US6849458 (dated 2005).

Series [1] has as its target human α-thrombin (human), P00734. The series is described as follows: microplate thermal shift assay, 1,8-ANS fluorescence, 50 µM ligand, single ligand.
Series [2] shares this target. Description: microplate thermal shift assay; Kd at Tm of Hirugen for thrombin with 50 µM 3dp-4660 present.
Series [3] has the same target. Description: microplate thermal shift assay; Kd at 298 K of Hirugen for thrombin with 50 µM 3dp-4660 present.
Series [4] has the same target. Description: microplate thermal shift assay; Kd at Tm of Hirugen for thrombin with 200 µM heparin 5000 present.
For series [5] the target is unchanged. The series is described as follows: microplate thermal shift assay; Kd at 298 K of Hirugen for thrombin with 200 µM heparin 5000 present.
The target is the same in series [6]. The series is described as follows: microplate thermal shift assay; 50 µM Hirugen added to thrombin with 50 µM 3dp-4660 present, shift against TH/3dp-4660.
The target is the same in series [7]. The series is described as follows: microplate thermal shift assay; 50 µM Hirugen added to thrombin with 200 µM heparin 5000 present, shift against TH/heparin 5000.
Series [8] deals with T1, acidic fibroblast growth factor (aFGF) (UniProt P05230 16-155, limits assumed). Description: microplate thermal shift assay, turbidity signal, 50 µM ligand.
T1 sequence (P05230 16-155 limits assumed): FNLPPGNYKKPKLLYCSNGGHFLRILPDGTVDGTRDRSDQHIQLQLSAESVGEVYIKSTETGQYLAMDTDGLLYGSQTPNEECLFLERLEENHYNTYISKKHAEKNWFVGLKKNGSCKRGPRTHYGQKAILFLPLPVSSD
For series [9], the target named is T1, acidic fibroblast growth factor (aFGF). The series is described as follows: microplate thermal shift assay, turbidity signal; Kd at 298 K estimated with equation (3).
For series [10] the target is unchanged. Description: microplate thermal shift assay, turbidity signal; Kd at Tm (322.15 K) calculated with equation (1).

B1: Hirugen (hirudin 53-64), P01050 53-64 (peptide)
peptide: DGDFEEIPEEYL
modifications: not checked
As for B1, the ΔTm came to 5.8 ° K in [1], 4.6 ° K in series [6] and 2.6 ° K in series [7]. Moreover, the equilibrium dissociation constant (Kd) came out at 731 nM in series [2], 54 nM in series [3], 4250 nM in series [4] and 478 nM in [5].

B2: EEEEEEEE (peptide)
peptide: EEEEEEEE
In the case of B2, in series [8], the ΔTm is 5 ° K. The Kd was 3040 nM in series [9] and 10100 nM in [10].

B3: EEEEE (peptide)
peptide: EEEEE
Take B3: in series [8], the ΔTm was found to be 0 ° K.

What is called Kd is a measure of binding affinity in units of concentration.
